Laboratory results from publication PMC8996325.

Target: T1, Act1 SEFIR (wild type) (UniProt Q8N7N6 390-531)
T1 sequence: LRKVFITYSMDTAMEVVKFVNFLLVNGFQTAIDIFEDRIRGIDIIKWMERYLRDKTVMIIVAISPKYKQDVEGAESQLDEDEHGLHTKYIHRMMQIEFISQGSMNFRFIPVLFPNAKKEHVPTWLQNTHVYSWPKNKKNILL
Experiment: competition

B1: Hif1α aptamer (SBE) (structured_RNA)
RNA: UAAUGCUCUUUUUAAUAUGUUCUUUUAAUGCCAGAUCACAGCACAUUCACAGCU
modifications: chemically modified RNA oligo (modification not specified)
- binding result: binds
